The values below come from publication PMC9992711, “Two-step structural changes in M3 muscarinic receptor activation rely on the coupled Gq protein cycle” (Nature Communications, 2023).

The target of assay [1] is T1, mouse M1 muscarinic receptor (mM1R) (Mus musculus, UniProt P12657).
T1 construct: gene Chrm1; mM1R-YFP-CFP; wild-type mM1R
T1 sequence (P12657 1-460): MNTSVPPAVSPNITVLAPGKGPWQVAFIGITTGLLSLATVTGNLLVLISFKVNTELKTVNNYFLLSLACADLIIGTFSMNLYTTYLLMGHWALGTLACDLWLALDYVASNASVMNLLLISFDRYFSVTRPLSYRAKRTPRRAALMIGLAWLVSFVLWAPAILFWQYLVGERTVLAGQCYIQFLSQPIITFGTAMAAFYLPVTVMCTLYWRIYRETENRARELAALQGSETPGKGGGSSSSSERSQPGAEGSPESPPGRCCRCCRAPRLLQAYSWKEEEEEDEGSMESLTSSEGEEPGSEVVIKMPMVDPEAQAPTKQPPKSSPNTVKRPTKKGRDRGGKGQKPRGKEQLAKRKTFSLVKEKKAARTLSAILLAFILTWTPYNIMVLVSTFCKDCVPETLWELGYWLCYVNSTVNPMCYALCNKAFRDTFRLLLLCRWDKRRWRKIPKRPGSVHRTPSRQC
The assay can be described thus: receptor FRET and RFP-PH translocation in HEK293T cells. Type of assay: cell-based.

Assay [2] addresses T2, human M3 muscarinic receptor (hM3R) (Homo sapiens, UniProt P20309, DEL271-484).
T2 construct: gene CHRM3; hM3R-YFP-CFP (EYFP replaces segment between Ala270 and Lys485 in ICL3; Cerulean at C-terminus)
The experiment in a line: intramolecular receptor FRET in HEK293T cells, concentration-response. Type of assay: cell-based.

Assay [3] addresses hM3R-Cerulean (human) (UniProt P20309). The experiment in a line: FRET or BRET; CFP/YFP photometry on single live HEK293T (tsA-201) cells; labelled pair with the remaining cognate G protein subunits co-transfected (GRK2 too for Gαq-CFP with Gβ1-YFP; only the two probes for hM3R-CFP with YFP-PLCβ1); 10 μM Oxo-M applied and washed out.
The target is the same in assay [4]. The experiment in a line: FRET or BRET; CFP/YFP photometry on single live HEK293T (tsA-201) cells; labelled pair co-transfected with the remaining cognate G protein subunits (GRK2 too for Gαq-CFP with Gβ1-YFP); whole-cell patch, pipette with 0.1 mM GTP; 10 μM Oxo-M applied; room temperature.
Assay [5] addresses hM3R-EYFP-Cerulean (human) (UniProt P20309).

Sequence of heterotrimeric Gq protein (P50148 whole entry, looked up, one chain of several): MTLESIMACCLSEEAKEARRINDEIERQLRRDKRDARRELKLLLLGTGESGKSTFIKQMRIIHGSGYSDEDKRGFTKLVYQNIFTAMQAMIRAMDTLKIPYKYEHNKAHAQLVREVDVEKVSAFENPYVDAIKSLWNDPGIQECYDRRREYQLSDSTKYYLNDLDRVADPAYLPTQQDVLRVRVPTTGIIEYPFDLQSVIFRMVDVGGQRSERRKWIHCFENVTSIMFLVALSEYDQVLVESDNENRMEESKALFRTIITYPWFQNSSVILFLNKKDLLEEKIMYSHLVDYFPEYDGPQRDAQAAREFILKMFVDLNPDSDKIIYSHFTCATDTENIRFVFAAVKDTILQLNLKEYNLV

For `C[N+](C)(C)CC#CCN1CCCC1=O` [Oxo-M, oxotremorine-M], in assay [1], the “receptor FRET and RFP-PH translocation in HEK293T cells” value is recorded as “wild-type mM1R or hM3R plasmid showed a strong translocation of RFP-PH from the plasma membrane to cytosol by Oxo-M”. Besides, the EC50 in assay [2] turned out to be 112 nM.

As for “Gβγ subunits (bovine Gβ1-EYFP with Gγ2) (from UniProt P62871 1-340; P59768 1-71) (complex; other documents disagree on this pair)”, the deactivation time constant τ of FRETr after Oxo-M washout in assay [3] is 0.53 s. Further, the time constant τ of the FRETr increase on Oxo-M in assay [4] turned out to be 0.23 s.

Turning to “heterotrimeric Gq protein (from UniProt P50148 1-359) (complex)”, the intramolecular FRETr of hM3R-YFP-CFP, time constant τ of step 1 on Oxo-M, intact HEK293T cells in assay [5] was found to be 0.22 s.
